± gives the standard deviation of the averaged measurements.
These sequences were tested on ATP (assay: switch fluorescence ratio, 500 uM ATP over buffer (Cy3 cluster intensity, sum of 5 cycles each) (fold (ratio)); higher = stronger signal-on switching upon ATP binding; sequences stand for … in TCGTCGGCAGCGTCAGATGTGTATAAGAGACAGTTTTTTTTTTTTTTTTTTTTTTTTT…TC). Details: aptamer strand: ATP DNA aptamer (quencher-CACCTGGGGGAGTATTGCGGAGGAAGG + anchor), 100 nM annealed; ATP concentration: 500 uM.
Summary of the method: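 For every switch-domain sequence, the fluorescence ratio is the mean of per-cluster values, each being summed target-cycle Cy3 intensity over summed buffer-cycle Cy3 intensity. Clusters outside 100-1000 RFU were excluded. On a modified Illumina MiSeq flow-cell, the Cy3-labelled switching-strand clusters were annealed to 100 nM quencher-labelled ATP aptamer, imaged in selection buffer and then after 15 min with 500 uM ATP at 22 °C. Five such cycles were run, with NaOH stripping and re-annealing between them.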
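Note: ATP exposure 15 min at 22 °C before imaging.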

Sequence | switch fluorescence ratio
ACGTTGGGCA | 0.99 ± 0.014
TACATATGGT | 1.03 ± 0.0018
TGGTCGGGGG | 0.997 ± 0.025
TGGGGCCGGG | 1.01 ± 0.016
ATTTTTCTGA | 1 ± 0.019
GGAGTACGGG | 0.999 ± 0.032
CAGATAGCAG | 1.093 ± 0.0021
ATCGGGGGTG | 0.982 ± 0.036
ATTGTAGAGT | 0.985 ± 0.026
TCTCACTGCC | 1.08 ± 0.028
TGAGCTGGGT | 0.995 ± 0.02
TTGCTTCAGC | 0.994 ± 0.097
TGGGATCGCT | 1.038 ± 0.0056
TTTTGAACGT | 1.02 ± 0.043
CCTTCCGTTC | 2.66 ± 0.53
ATTATGTTTA | 1 ± 0.022
ATCGCTTAAT | 1.03 ± 0.049
ACGGGTTGTG | 0.96 ± 0.037
AATTTGTATT | 0.997 ± 0.011
CCTGGCGATG | 1.38 ± 0.053
TTACTTGTGG | 0.988 ± 0.024
TTATTTTATT | 0.998 ± 0.021
GAGTAACCTG | 1.01 ± 0.071

Sequence | switch fluorescence ratio
GGCTGGGCTT | 0.99 ± 0.04
GAAATGGTAT | 1 ± 0.011
TTGTTTTACT | 1.027 ± 0.0056
TAAATCAGTA | 0.9888 ± 0.0048
GGGGCCAATT | 1.01 ± 0.032
ACGTGACACC | 1.35 ± 0.063
CTTGTATTAG | 1.01 ± 0.012
GCATTAGTTT | 1.04 ± 0.012
GGTTTCGGGA | 1.01 ± 0.021
TAAGATTTTT | 1.01 ± 0.032
ACTTTTCTCG | 1.01 ± 0.011
GGGGACTGAT | 0.995 ± 0.022
TGTTATGAGT | 0.99 ± 0.036
TATAACCTGT | 1.015 ± 0.0089
GGCAGATGAA | 1.03 ± 0.011
TTTCATGATG | 0.998 ± 0.02
CAATGGAGGC | 0.976 ± 0.072
AGAGATACTT | 1.01 ± 0.035
AGAGAGGTCA | 0.997 ± 0.042
ACGTCTACTC | 1.37 ± 0.1
GGTGTAATTG | 1.003 ± 0.0065
TTCCGGGGGC | 1.61 ± 0.98
TACTTTCTGC | 1.02 ± 0.066

Sequence | switch fluorescence ratio
TGTTTGTGAG | 1 ± 0.045
CACGCACATG | 1.5 ± 0.076
TGAAGCAGGG | 1.13 ± 0.018
GAGCGGTTTG | 0.998 ± 0.017
TTGGGCTATT | 1.01 ± 0.015
TTACGTTTGT | 1.02 ± 0.07
TTTAAAGAGG | 0.9813 ± 0.0042
TTTATGAGAC | 1.02 ± 0.065
GACTCTAGGA | 1.064 ± 0.0025
TCGTTTTGAG | 0.971 ± 0.039
AAATTGCGGG | 0.994 ± 0.048
TTGTTGAGGA | 1.01 ± 0.028
TGTAGAGGTG | 1.09 ± 0.022
CGCTAGGGGA | 1.07 ± 0.041
GGAAATAAGG | 1.01 ± 0.033
GGGGATGTTT | 0.958 ± 0.039
GGAGTATGAG | 0.999 ± 0.021
GCTGGGCGGA | 1.04 ± 0.039
CGAGGTCAGT | 1.044 ± 0.01
GGGTATAGTA | 0.973 ± 0.044
ATGTGGTTCC | 1.004 ± 0.0025
TGAAAATTCC | 1.12 ± 0.073
ATGCGCTGGG | 1.01 ± 0.021

Sequence | switch fluorescence ratio
AAGTCTACG | 1.04 ± 0.03
GACGAGGCAG | 2.27 ± 0.21
GACGACTGAG | 0.999 ± 0.087
TTAGTTATTG | 1 ± 0.087
AAATCAAGTG | 0.97516 ± 1.6e-05
TCGCTTATCG | 1.02 ± 0.072
AGGGATAAAT | 1.01 ± 0.055
CAGATATGGC | 1.05 ± 0.034
TCCGTTTTGA | 1.001 ± 0.0095
TGTGAGAGTT | 0.9826 ± 0.0098
CGCTACAATG | 1.0456 ± 0.00099
GAGGAAGGGA | 1.01 ± 0.017
AACGGATCGG | 0.998 ± 0.025
CAAGAGGGTC | 1.04 ± 0.067
AGAGAGTAGA | 1.02 ± 0.021
AACTGGGGC | 0.959 ± 0.062
TCTCTGTCGA | 1.4 ± 0.11
ATATCCGCTG | 1.52 ± 0.071
CGTTTTATTG | 0.99 ± 0.049
TTTTTTGCGT | 0.987 ± 0.047
AAGTACAAGG | 1.16 ± 0.1
GATACTTCTA | 0.972 ± 0.026
GCCGTTACTG | 1.05 ± 0.031

Sequence | switch fluorescence ratio
GGCATGTTAG | 0.9847 ± 0.009
GCGTTTTAAC | 1.019 ± 0.0093
GAACGGGGCG | 1.01 ± 0.099
GATAATTTTG | 0.989 ± 0.027
CTAGGCAATG | 1.44 ± 0.67
CAGGGCGTGG | 0.948 ± 0.038
TTACAAAATA | 1.03 ± 0.048
TTGCAAGAGA | 1.022 ± 0.0082
AGGGCTAAGG | 0.9995 ± 0.0034
TTGGGGCGGA | 0.9923 ± 0.0095
AACGTTGGTA | 0.989 ± 0.034
CGCTTATATC | 2.8 ± 0.32
TAGTTTCGGG | 0.997 ± 0.05
CCGGAGAGGG | 1.7 ± 0.61
GTTTCCATGG | 0.973 ± 0.033
GGTAGCTTGG | 1.13 ± 0.17
CGCAAAGGGG | 1.39 ± 0.29
TTCTTTGGGT | 0.947 ± 0.036
TTCAGGGTTC | 0.966 ± 0.027
ACGGGTGACC | 1.03 ± 0.032
GGCCGCGGCC | 1.0014 ± 0.00091
CCTGGACTCG | 1.02 ± 0.03
TTTCCAGACT | 0.968 ± 0.019

Sequence | switch fluorescence ratio
TCGAAGGGGT | 0.982 ± 0.013
ACCACTAAAA | 1.04 ± 0.019
TAGGGTGGGC | 0.954 ± 0.028
CCGGGTGGGG | 1.04 ± 0.03
TTGGGTGCCT | 0.999 ± 0.028
ATATGAAGGG | 1 ± 0.032
ACCTTTTTTT | 1.17 ± 0.11
GCAAAGTGGA | 0.9773 ± 0.0047
TGCGGGGTGC | 1.02 ± 0.0028
ACAGGTAGCT | 1.06 ± 0.056
AGGGTGTGAT | 1.04 ± 0.026
GGAGTAAAGG | 1.06 ± 0.022
CAGAAAAAAT | 0.978 ± 0.038
TTCTTTTTGG | 0.97 ± 0.042
TTGTTATGAT | 1.01 ± 0.018
GATAGCTCTG | 1.02 ± 0.021
ACGAATGGTG | 1.02 ± 0.031
GGTTTTTAAG | 0.995 ± 0.023
AATATCGGCA | 0.982 ± 0.027
ATGGAAAGAA | 0.974 ± 0.038
ATGGGCTGGA | 1.04 ± 0.015
TTTTACAGAT | 0.975 ± 0.017
GTGGTAGGTA | 0.998 ± 0.021

Sequence | switch fluorescence ratio
TTGTGCTTGT | 0.983 ± 0.019
CACAAACCAG | 1.34 ± 0.37
CAAATAAACC | 1.03 ± 0.018
AGCGGGTTAC | 1.09 ± 0.06
GTGTACGTGG | 1.008 ± 0.0057
GGCCTTAAGT | 0.9912 ± 0.0025
TACACCGCGG | 1.02 ± 0.027
TGTTTGAAGA | 1 ± 0.028
GGCGACGGAG | 0.97 ± 0.0076
AATAACGAAG | 1.04 ± 0.045
GGGTGCCCAT | 1.03 ± 0.021
GTGGTAATGG | 0.953 ± 0.021
ATGGGGTCAG | 0.993 ± 0.021
AGACCTTCTT | 1.51 ± 0.025
AGGCTATCCC | 0.992 ± 0.033
TTAAGTGTTT | 1 ± 0.022
CACTTAACAG | 1.1 ± 0.017
GGTTGCAAGA | 1.01 ± 0.015
GGGGCTGTCT | 1 ± 0.071

From the supplement of paper PMC10126150
